The experiment concerns the target NcCAR reductase (R) domain, NcCAR^Δ1–649 (Neurospora crassa). Put plainly: SAXS; R-domain in solution; best fit of the experimental data as a mixture of monomer and dimer.

As to “NcCAR reductase (R) domain, NcCAR^Δ1–649 (domain or fragment)”, the percent dimer in solution amounted to 69%, the percent monomer in solution was determined as 31% and the stoichiometry N is 2.

Usually stoichiometry N stands for a count of units in the complex or per binding partner.
